Data from patent US20150165065A1 (AVIDBIOTICS, published 2015).
Substitutions are numbered along the chain they refer to.

B1: soluble MICA generated from pKK45 (loop 1 insert extended 3.3sp) (designed binder)
chain: HHHHHHEPHSLRYNLTVLSWDGSVQSGFLTEVHLDGQPFLRCDRQKCRAKPQGQWAEDVLGNKTWDRETRDLTGNGKDLRMTLAHIKDQKEGLHSLQEIRVCEIHEDNSTRSSQHFYYDGELFLSQNLETEEWTMPQSSRAQTLAMNVRNFLKEDAMKTKTHYHAMHADCLQELRRYLKSGVVLRRTVPPMVNVTSGGSGGGSRVPRGDSDLTSGGSGGGVTCRASGFYPWNITLSWRQDGVSLSHDTQQWGDVLPDGNGTYQTWVATRICQGEEQRFTCYMEHSGNHSTHPVPSGK
notes: From pKK34 (His6, Glu125); secreted by 293T cells; also called 1-3.3sp
B2: soluble MICA generated from pKK47 (loop 1 insert extended 5.3sp) (designed binder)
chain: B1 chain with R204H, V205L, P206A, S210D, D211L, L212T, T213Y
notes: From pKK34 (His6, Glu125); secreted by 293T cells; also called 1-5.3sp
B3: soluble MICA generated from pKK36 (loop 1 insert 3.1) (designed binder)
chain: HHHHHHEPHSLRYNLTVLSWDGSVQSGFLTEVHLDGQPFLRCDRQKCRAKPQGQWAEDVLGNKTWDRETRDLTGNGKDLRMTLAHIKDQKEGLHSLQEIRVCEIHEDNSTRSSQHFYYDGELFLSQNLETEEWTMPQSSRAQTLAMNVRNFLKEDAMKTKTHYHAMHADCLQELRRYLKSGVVLRRTVPPMVNVTSRGDHPRTQVTCRASGFYPWNITLSWRQDGVSLSHDTQQWGDVLPDGNGTYQTWVATRICQGEEQRFTCYMEHSGNHSTHPVPSGK
notes: From pKK34 (His6, Glu125); secreted by 293T cells; also called 1-3.1
B4: soluble MICA generated from pKK48 (loop 3 insert extended 3.2sp) (designed binder)
chain: EPHSLRYNLTVLSWDGSVQSGFLTEVHLDGQPFLRCDRQKCRAKPQGQWAEDVLGNKTWDRETRDLTGNGKDLRMTLAHIKDQKEGLHSLQEIRVCEIHEDNSTRSSQHFYYDGELFLSQNLETKEWTMPQSSRAQTLAMNVRNFLKEDAMKTKTHYHAMHADCLQELRRYLKSGVVLRRTVPPMVNVTRSEASEGNITVTCRASGFYPWNITLSWRQDGVSLSHDTQQWGDVLPDGNGTYQTWVATRISGGSGGGSTSRGDHPRTQSGGSGGGCYMEHSGNHSTHPVPSGK
notes: From pSW276 (no N-terminal His tag, Lys125); secreted by 293T cells; also called 3-3.2sp
B5: soluble MICA generated from pKK50 (loop 3 insert extended 5.1sp) (designed binder)
chain: B4 chain with T258V, S259T, H263T, P264F, R265T, T266Q, Q267S
notes: From pSW276 (no N-terminal His tag, Lys125); secreted by 293T cells; also called 3-5.1sp
B6: soluble MICA generated from pKK49 (loop 3 insert extended 3.3sp) (designed binder)
chain: B4 chain with T258R, S259V, R260P, G261R, D262G, H263D, P264S, R265D, T266L, Q267T
notes: From pSW276 (no N-terminal His tag, Lys125); secreted by 293T cells; also called 3-3.3sp
B7: soluble MICA generated from pKK51 (loop 3 insert extended 5.3sp) (designed binder)
chain: B4 chain with T258H, S259L, R260A, G261R, D262G, H263D, P264D, R265L, Q267Y
notes: From pSW276 (no N-terminal His tag, Lys125); secreted by 293T cells; also called 3-5.3sp
B8: M13 phage pKK94 displaying MICA α3 domain with loop 1 insert 3.3 (designed binder)
chain: TVPPMVNVTRVPRGDSDLTVTCRASGFYPWNITLSWRQDGVSLSHDTQQWGDVLPDGNGTYQTWVATRICQGEEQRFTCYMEHSGNHSTHPVPSGK
notes: also called 1-3.3; not shown: C-terminal portion of M13 gene III protein, fused at codon position 198
B9: M13 phage pKK98 displaying MICA α3 domain with loop 1 insert 5.3 (designed binder)
chain: B8 chain with R10H, V11L, P12A, S16D, D17L, L18T, T19Y
notes: also called 1-5.3; not shown: C-terminal portion of M13 gene III protein, fused at codon position 198
B10: M13 phage pKK92 displaying MICA α3 domain with loop 1 insert 3.1 (designed binder)
chain: TVPPMVNVTSRGDHPRTQVTCRASGFYPWNITLSWRQDGVSLSHDTQQWGDVLPDGNGTYQTWVATRICQGEEQRFTCYMEHSGNHSTHPVPSGK
notes: also called 1-3.1; not shown: C-terminal portion of M13 gene III protein, fused at codon position 198
B11: M13 phage pKK104 displaying MICA α3 domain with loop 3 insert 3.2sp (designed binder)
chain: TVPPMVNVTRSEASEGNITVTCRASGFYPWNITLSWRQDGVSLSHDTQQWGDVLPDGNGTYQTWVATRISGGSGGGSTSRGDHPRTQSGGSGGGCYMEHSGNHSTHPVPSGK
notes: also called 3-3.2sp; not shown: C-terminal portion of M13 gene III protein, fused at codon position 198
B12: M13 phage pKK105 displaying MICA α3 domain with loop 3 insert 3.3sp (designed binder)
chain: B11 chain with T78R, S79V, R80P, G81R, D82G, H83D, P84S, R85D, T86L, Q87T
notes: also called 3-3.3sp; not shown: C-terminal portion of M13 gene III protein, fused at codon position 198

Molecular target: T1, integrin αVβ5 (UniProt P06756 31-992; P18084 24-719)
T1 construct: Coated on the ELISA plate
Test: ELISA, coated integrin, anti-MICA-HRP
Description: (§1) The ability of the soluble MICA molecules in each of the concentrated supernatants to bind target molecules was assayed by an ELISA using the intended target proteins, integrin αVβ3 or αVβ5, as capture agents on the ELISA plate. After the respective integrins were adhered to the bottoms of the wells of the ELISA plate, the wells were washed and blocked, as well known in the field. Each sample (100 μl) of soluble MICA produced and secreted by 293T cells was added to wells containing αVβ3 or αVβ5, incubated and washed. The soluble MICA molecules captured by the integrins were detected by HRP-conjugated antibody to human MICA developed with Ultra TMB-ELISA substrate and the optical densities read. The quantity of soluble MICA in each sample was determined by the MICA-specific ELISA. […] The ELISA signal from a non-binding, negative control MICA (generated by pSW273) was subtracted from each integrin binding signal.

T1 sequence (P06756 31-992, chain 1 of 2): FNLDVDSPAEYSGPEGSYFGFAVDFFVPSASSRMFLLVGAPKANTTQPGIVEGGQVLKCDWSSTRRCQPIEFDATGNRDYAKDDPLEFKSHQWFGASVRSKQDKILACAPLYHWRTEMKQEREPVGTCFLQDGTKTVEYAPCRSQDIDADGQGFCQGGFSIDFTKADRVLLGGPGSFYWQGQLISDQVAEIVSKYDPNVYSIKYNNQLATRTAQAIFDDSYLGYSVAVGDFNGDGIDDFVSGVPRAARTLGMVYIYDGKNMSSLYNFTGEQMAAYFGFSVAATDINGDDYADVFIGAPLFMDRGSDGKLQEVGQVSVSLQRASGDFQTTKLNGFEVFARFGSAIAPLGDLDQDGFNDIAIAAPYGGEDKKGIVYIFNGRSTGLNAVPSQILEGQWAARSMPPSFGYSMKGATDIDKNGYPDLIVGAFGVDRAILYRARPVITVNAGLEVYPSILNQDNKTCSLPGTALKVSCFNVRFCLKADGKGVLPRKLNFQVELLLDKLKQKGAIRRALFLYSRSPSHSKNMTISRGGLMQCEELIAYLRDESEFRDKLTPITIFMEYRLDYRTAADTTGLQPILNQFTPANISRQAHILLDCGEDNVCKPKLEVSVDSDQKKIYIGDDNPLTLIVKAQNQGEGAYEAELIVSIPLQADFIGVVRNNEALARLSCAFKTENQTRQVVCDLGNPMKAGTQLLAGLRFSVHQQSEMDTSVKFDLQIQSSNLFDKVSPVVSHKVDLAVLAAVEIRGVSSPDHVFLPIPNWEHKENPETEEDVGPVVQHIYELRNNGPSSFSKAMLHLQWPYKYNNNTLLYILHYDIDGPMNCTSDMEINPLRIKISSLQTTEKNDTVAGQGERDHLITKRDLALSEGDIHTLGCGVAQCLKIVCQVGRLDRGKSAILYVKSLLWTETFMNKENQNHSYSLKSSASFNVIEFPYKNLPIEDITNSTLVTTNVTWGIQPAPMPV
T1 sequence (P18084 24-719, chain 2 of 2): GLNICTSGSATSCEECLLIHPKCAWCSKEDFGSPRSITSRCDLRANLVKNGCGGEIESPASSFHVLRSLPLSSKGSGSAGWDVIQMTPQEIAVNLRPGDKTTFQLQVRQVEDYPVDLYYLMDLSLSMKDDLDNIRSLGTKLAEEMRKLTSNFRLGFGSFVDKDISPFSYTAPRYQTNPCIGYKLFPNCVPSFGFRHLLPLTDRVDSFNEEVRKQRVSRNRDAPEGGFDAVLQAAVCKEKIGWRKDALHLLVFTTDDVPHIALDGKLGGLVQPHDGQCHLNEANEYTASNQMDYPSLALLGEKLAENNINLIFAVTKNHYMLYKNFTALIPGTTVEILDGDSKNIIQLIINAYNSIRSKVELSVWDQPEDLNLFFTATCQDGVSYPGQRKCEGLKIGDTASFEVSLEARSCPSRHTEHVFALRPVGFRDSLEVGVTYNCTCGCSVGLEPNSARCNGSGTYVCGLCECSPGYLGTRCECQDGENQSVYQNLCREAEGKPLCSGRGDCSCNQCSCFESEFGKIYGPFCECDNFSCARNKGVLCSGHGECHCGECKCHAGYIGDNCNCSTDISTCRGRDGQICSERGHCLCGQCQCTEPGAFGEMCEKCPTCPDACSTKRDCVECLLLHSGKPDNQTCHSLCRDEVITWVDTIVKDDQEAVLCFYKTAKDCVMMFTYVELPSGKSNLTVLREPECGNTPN

In order of rising αvβ5 signal:
1. B2  0.276 OD
2. B1  0.41 OD
3. B6  0.478 OD
4. B3  0.526 OD
5. B4  0.604 OD
6. B5  0.721 OD
7. B7  1.05 OD

In order of rising αvβ5 signal/ng:
1. B6  5.51 signal/ng MICA
2. B4  7.68 signal/ng MICA
3. B5  7.73 signal/ng MICA
4. B2  9.38 signal/ng MICA
5. B1  9.92 signal/ng MICA
6. B7  10.9 signal/ng MICA
7. B3  18.1 signal/ng MICA

Molecular target: T2, integrin αVβ3 (UniProt P06756 31-992; P05106 27-718)
T2 construct: Coated on the ELISA plate
Test: ELISA, coated integrin, anti-MICA-HRP
Description: as §1

T2 sequence (P06756 31-992, chain 1 of 2): as the sequence (P06756 31-992, chain 1 of 2) above
T2 sequence (P05106 27-718, chain 2 of 2): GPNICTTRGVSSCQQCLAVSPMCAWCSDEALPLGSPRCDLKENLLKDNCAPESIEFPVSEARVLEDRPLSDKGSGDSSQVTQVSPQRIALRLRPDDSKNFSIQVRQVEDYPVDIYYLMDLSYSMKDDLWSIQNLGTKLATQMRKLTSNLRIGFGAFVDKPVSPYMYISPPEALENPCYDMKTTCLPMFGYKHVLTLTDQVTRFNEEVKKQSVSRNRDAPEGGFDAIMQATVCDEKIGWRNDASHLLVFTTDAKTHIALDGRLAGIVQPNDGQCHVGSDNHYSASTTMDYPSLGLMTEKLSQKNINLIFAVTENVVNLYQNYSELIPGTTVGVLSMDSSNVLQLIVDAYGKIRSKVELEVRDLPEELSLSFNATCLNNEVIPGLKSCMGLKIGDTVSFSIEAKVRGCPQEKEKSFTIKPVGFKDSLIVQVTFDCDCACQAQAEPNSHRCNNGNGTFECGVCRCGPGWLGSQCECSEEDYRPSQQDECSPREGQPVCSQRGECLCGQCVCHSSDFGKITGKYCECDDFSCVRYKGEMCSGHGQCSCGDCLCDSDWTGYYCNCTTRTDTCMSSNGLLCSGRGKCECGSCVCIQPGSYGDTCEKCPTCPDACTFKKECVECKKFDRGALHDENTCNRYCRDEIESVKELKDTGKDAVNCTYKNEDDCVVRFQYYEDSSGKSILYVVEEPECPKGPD

In order of falling αvβ3 signal:
1. B7  0.694 OD
2. B3  0.55 OD
3. B5  0.546 OD
4. B6  0.508 OD
5. B4  0.478 OD
6. B1  0.393 OD
7. B2  0.294 OD

In order of falling αvβ3 signal/ng:
1. B3  19 signal/ng MICA
2. B2  9.99 signal/ng MICA
3. B1  9.51 signal/ng MICA
4. B7  7.2 signal/ng MICA
5. B4  6.08 signal/ng MICA
6. B6  5.86 signal/ng MICA
7. B5  5.85 signal/ng MICA

Molecular target: T1, integrin αVβ5
Test: phage ELISA, coated integrin, anti-M13-HRP
Description: (§2) The phage vectors were independently transformed into NEBαF′tet competent E. coli cells. Phages produced by the transformed cells were tittered and their concentrations adjusted by dilution to 10¹³ per ml. The ability of the soluble MICA molecules in each of the phage preparations was assayed by an ELISA using the intended target proteins, integrin αVβ3 or αVβ5, as capture agents on the ELISA plate. After the respective integrins were adhered to the bottoms of the wells of the ELISA plate, the wells were washed and blocked, as well known in the field. Each sample (100 μl) of phage preparation was added to wells containing αVβ3 or αVβ5, incubated and washed. The phages captured by the integrins were detected by HRP-conjugated antibody to the M13 phage coat developed with Ultra TMB-ELISA substrate and the optical densities read.

In order of falling αvβ5 signal:
1. B8  2.84 OD
2. B9  1.48 OD
3. B10  1.32 OD
4. B11  1.12 OD
5. B12  1.11 OD

Molecular target: T2, integrin αVβ3
Test: phage ELISA, coated integrin, anti-M13-HRP
Description: as §2

In order of falling αvβ3 signal:
1. B12  1.33 OD
2. B9  1.22 OD
3. B8  1.07 OD
4. B10  0.858 OD
5. B11  0.791 OD
